Consider six sequences from a protein production outcome set (Wang et al. 2014).

The nature of this series: label from the status in PepcDB records.
Take “MKRVPWVVGGLILIMAYNAALGTLAYWQRRDIIDESLREAVVVADILVREVEANLDRIDRTLSGLTEVLRAYPSAIDVHDPFTHRLLLRRHAITPSLAALFLIGGDGRLRNASLTDKVSEIDVSGEDYFAFHLSNVDDEFFIGAVTTNRLDKSWVIPVSRAVRDSFGRLTGVVAATITTDSIDQMIHSHQLSEGFAVTITQRDAGMIGCLGFTRCWGEGAPHRGDEGLAESGGSGEEVHYLPNGPGVGAFLRGPTYGVEVTVQASDRTLLQPWREKLAFILVLQVFGTLGLGFGITSLYYQMHHRRVSLLDLERANASLESKVAERTRQLAEGEERMRGFIMAARDAVVIIDQKGIISEFNPSATELFGYDVEEVRGQSVNMLMPATYARDHDGHLRKGKPSGQRAIGRGREMIGRRKNGSEFPIELTVGTQSFDGTRVHIGVIRDITERKATEETLRRLANIDGLTGVLNRRSFTEESELLLSLANRHGRRLSMMIVDADHFKGVNDTYGHDAGDRVLKALTGEIAGVLRKTDLLGRIGGEEFAILLPETDQEGAEGLAWRVVLAIRALEVPLPEGGVLKVTVSVGVSCRNTEAATFDWMLKEADTALYAAKHGGRDRVACFGQTQSVARS”: the protein production entry is recorded as “failed”.

As to “MSRSTRSDQNARIRQRLGQPESGWRQRWYTIIFEADTRPGRTFDIVLLVAIIASVAVVMLDSIQAIHARLGTVFTALEWLFTLLFTTEYIMRLSVVRRPLRYVFSFYGIIDFLSIIPTWASFFVPELAFLIDVRLLRLLRVFRILKLTVYFEEAEILMLALSNSRRKIFVFLGTVFIITVILGTIMYVVEGPTHGFTSIPVSMYWAIVTLTTTGFGDMVPKTPIGQFITSITILLGYGIIAFPTGIVGAELAASIIRRPLTTRSCEHCLTEGHEPDATFCKHCGTALPEYRTELATDRRGDDGSRSR”, the protein production result is listed as “failed”.

As for “MLEFTKRSLMNKYNINERVLELYERALNDVEKEFKYYDEIREYNQLKVLKAFQEERISESHFTNSSGYGYNDIGRDSLDRVYANIFNTESAFVRPHFVNGTHAIGAALFGNLRPNDTMMSICGMPYDTLHDIIGMDDSKKVGSLREYGVKYKMVDLKDGKVDINTVKEELKKDDSIKLIHIQRSTGYGWRKSLRIAEIAEIIKSIREVNENVIVFVDNCYGEFVEEKEPTDVGADIIAGSLIKNIGGGIATTGGYIAGKEEYVTQATFRVTVPGIGGECGSTFGVMRSLYEGLFMAPHVTIEAVKGAVFCARIMELAGFDVLPKYNDKRTDIIQAIKFNDEKKLIDFIKGIQTASPVDSFVQCEAWDMPGYEDKVIMAAGTFVQGASIELSADAPIREPYIGYLQGGLTFDHAKLGVLIALSKLIM”, the protein production entry is listed as “not failed”.

Take “MGVDNFSTTKKMFTWEVPGERVITLMTAGNLATTQALISLLEERSKTPSERSPSILERPTMFEVARLVGATLKEVIADTAGTGQVASSQFKASVIVGGQVKGGLPTLFLIYPEGNFIEVTEDSPFFQIGEAKYGKPILVRAYDPDLSFEDTIRLLMVSFDSTIKANLSVGLPLDLQVYANDSFAIKEQSRVEADDAYFQSISERWGDALRKALSDLPPYKSLLEHHHHHH”: the protein production entry is “failed”.

For the sequence “MMRSSKIGFRSLAVWPFSLTAFFFFLLHPCVSAQRVYKPEDVPNVQLADSTRLVTDEAGLLSNAQEEVMNGRLRAIRSSHAVEFAVVTLPSIGDAPLEDFTLKLARQWGVGNEKNNNGLLLVLVLDQRRVRFETGYGLEGYLPDGLLSRIIHDRMIPHFRSGNYAEGLSEGVLAVQQVLDGSYDVKPDGGDRSAVSRVSWGTIFIFYCFFMLLASASVLYQLTSYRRQYPRATAVEEYEFLRRRISMLGCVFLLLFPPGFIVVMAIIKSRQNKLKKEMAVCPCCHQHSVHLLDQSLEEDRYLSPSQQMEHKLKSRDFRVYACSSCDHTQIIGYDHPGTSYKRCPNCGTVALRYMGEKRVRTDRGMMIRKEWRCLYCGENHTQEYRDNNDAEAAATGILLGSLLGRGGRSGGFGGGFGGGGFGGGSFGGGGASGGWLEHHHHHH”, the protein production result was “failed”.

With “MIRLILILINILFCHYLYALDCQKRLFDISINEKLSIQESLDELAKYCSFSIIVKDKIAKEKLETLQNSVNIHQMSLDEIFNFFIKEHDLSYDFDGKILRISGINTKIFKISYITSIREGQSITKASVDAKPRQSEYSGSFDDAEDNMIKSMEKFDFWQNIEKEIIVLLKNSHEDYEAKTPIINPNAGLIIVTGTNSQLKSVKNYLQKLENRLKKQVIIDVSILAVSLNESHSSGINWQNFNIGLNSQVNNENSFIQFQNGQGFVKNLGLRANLNFDSIINFLSQNGKTSVLSNPKLMALNNQQAIISVGDTINYQVKESSKGTENGTTVSESYNNYSIFVGILLNILPEISDDGKIMLRINPSLSDFKYPEDNKRQKEPRTIAPDTIQKKLSSVVQVENNQTLILGGLISHDKSNEKNSINFLSKIPILGSLFKGEVLNSKATEIVFIITPSIVDSVNAPSLKDLGFKHYELEHHHHHH”, the protein production result is recorded as “failed”.
